From patent publication US20260250737A1, “Engineered Luciferases and Luciferin Substrates” (Monod Bio, Inc., priority 2023, published 2026)
Residue numbers refer to the chain shown, from its start. Names and notes keep the numbering of the source.

How the values were obtained:
[1] = tested on: MBIO-301-derived split enzyme; test: Bioluminescence emission of synthetic luciferin substrates with MBIO-301-derived split enzyme (FRB:FKBP, rapamycin); type: biochemical; conditions: 1 nM MBIO-557, 1 nM MBIO-563, 10 μM Substrate, 100 nM Rapamycin
Experimental: The MBIO-301 enzyme was split into two components: MBIO-557 (Small portion) and MBIO-563 (Large portion). • MBIO-557 has the following sequence: NRVDEVRVYINGSGS (SEQ ID NO:2735) • MBIO-563 has the following sequence:
Bioluminescence emission of synthetic luciferin substrates was measured. The luciferin substrates were incubated with MBIO-301-derived split enzyme. The two-component MBIO-301 split luciferase enzyme was fused to the rapamycin inducible FRB:FKBP system and incubated with its complementary part at a 1:1 ratio. Each of the molecules was incubated with 1×PBS, 0.5% Propylene Glycol, 0.05% Anti-foam, 100 mM Imidazole, 10 mM Ascorbic Acid buffer, 100 nM Rapamycin and emission signal was measured using a Synergy H1 plate reader.
In-well concentrations: 1 nM MBIO-557 (EGFP-FRB-Small portion), 1 nM MBIO-563 (EGFP-FKBP-Large portion), 10 μM Substrate, 100 nM Rapamycin.

[2] = Luciferase activity (brightness) of LuxSit-i variants; type: biochemical
[3] = as above; type: biochemical; conditions: Table 3; combined substitutions; relative to LuxSit-i
Experimental: SSM was performed to evaluate the effect of single mutations on the luciferase activity of LuxSit-i. FIG. 3 graphically presents the mutation frequency at the positions found in the SSM as beneficial for increasing luciferase activity.
FIG. 4A provides data for luciferase activity for MBIO-148, MBIO-158 and Luxsit-i. MBIO-148, MBIO-158, and Luxsit-i were serially diluted starting from a final in-well concentration of 10,000 pM. Each dilution was combined with Diphenylterazine (DTZ) to a final in-well concentration of […]. Points shown are from the initial reading once the plate read was started.
FIG. 4B provides data for luciferase activity for MBIO-148, MBIO-301, MBIO-302, and LuxSit-i. MBIO-148, MBIO-301, MBIO-302, and Luxsit-i were serially diluted starting from a final in-well concentration of 500 pM. Each dilution was combined with DTZ to a final in-well concentration of 10 μM. Points shown are from the initial reading once the plate read was started.

[4] = Stability of LuxSit-i variants (yeast display protease resistance, static light scattering); type: physicochemical
Experimental: In certain aspects, these polypeptides have improved stability at high temperatures as compared to LuxSit-i. For example, these polypeptides are stable at higher temperatures as compared to LuxSit-i. Stability may be measured by enzymatic activity and/or protein misfolding measured over a period of time. In certain embodiments, stability may be measured using static light scattering (SLS).
A single saturation mutagenesis (SSM) was performed to evaluate by yeast display the effect of single mutations in the stability of LuxSit-i (SEQ ID NO:1). The SSM library was transformed into electrocompetent cells of the strain EBY100. Twenty million cells were labeled with anti-myc FITC antibody in order to detect protein expression on the yeast surface by measuring fluorescence emission. Cells were sorted using a Sony SH800 cell sorter and those showing protein expression (FITC signal) were collected and grown. DNA was extracted from the sorted cells using conventional DNA extraction conventional methods. The DNA library was sequenced using Nanopore technology. Single amino acid substitutions that increase protein stability are enriched after sorting.
(§1) Single saturation mutagenesis (SSM) was performed to evaluate (by yeast display) the effect of single mutations in the stability of LuxSit-i-i. The SSM library was transformed into electrocompetent cells of the strain EBY100. Twenty million cells were labeled with an anti-myc FITC antibody to detect protein expression on the yeast surface by measuring the emission of fluorescence by FITC. Yeast were incubated with a mixture of 3.5 uM trypsin and 1.4 uM chymotrypsin (1/729 dilution of the stock solution) at 25° C. for 15 min. Cells were sorted using a Sony SH800 cell sorter and those showing protein expression (FITC signal) after protease incubation were collected and grown. DNA was extracted from the sorted cells using conventional DNA extraction conventional methods. The DNA library was sequenced using Nanopore technology. Single amino acid substitutions that increase protein stability are enriched after sorting.
as §1, with “LuxSit-i.” for “LuxSit-i-i.”, “antibody in order” for “antibody”, “10” for “3.5”, “4” for “1.4”, “(1/243” for “(1/729”
as §1, with “LuxSit-i.” for “LuxSit-i-i.”, “antibody in order” for “antibody”, “15” for “3.5”, “6” for “1.4”, “(1/162” for “(1/729”, “sorting. […]” for “sorting.”

[5] = target: T1, LgLux_4039; test: cell-based or functional assay
T1 chain: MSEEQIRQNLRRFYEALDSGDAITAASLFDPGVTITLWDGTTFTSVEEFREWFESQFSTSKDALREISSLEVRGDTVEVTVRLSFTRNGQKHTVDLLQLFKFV

[6] = among variants derived from MBIO-2859, Table 13

Molecule: O=c1c(Cc2ccccc2)nc2c(-c3ccccc3)[nH]c(-c3ccc(O)cc3)cn1-2 [1c]
- Fold Change with Rapamycin Addition at Initial Read [1]: 116.8

Molecule: O=c1c(Cc2ccccc2)nc2c(-c3ccc(F)cc3)[nH]c(-c3ccccc3)cn1-2 [2d]
- Fold Change with Rapamycin Addition at Initial Read [1]: 46.2

Molecule: O=c1c(Cc2ccccc2)nc2c(-c3cccnc3)[nH]c(-c3ccccc3)cn1-2 [2p]
- Fold Change with Rapamycin Addition at Initial Read [1]: 17.1

Molecule: O=c1c(Cc2ccccc2)nc2c(-c3ccccc3)[nH]c(-c3ccccc3)cn1-2 [DTZ, Diphenylterazine, reference compound]
- Fold Change with Rapamycin Addition at Initial Read [1]: 58.4

B1: MBIO-301: LuxSit-i variant F9N, Q64L, A85F, H87R, H99L, T108D, H113Y, W100F; SEQ ID NO 104 (protein)
chain: MSEEQIRQNLRRFYEALDSGDADTAASLFHPGVTIHLWDGVTFTSREEFREWFERLFSTSKDALREIKSLEVRGDTVEVHVQLHFTRNGQKHTVDLTHLFHFRGNRVDEVRVYINPTG
- luciferase activity ([2]; among mutants from combinatorial library, Table 10): highest

B2: MBIO-148: LuxSit-i variant W100F_A85F_H87L_Q64W, SEQ ID NO: 2600 (SEQ ID NO 2 in Table 4) (protein)
chain: B1 chain with N9F, L64W, R87L, L99H, D108T, Y113H
- Brightness improvement [3]: Increase
- Stability improvement ([4]; Table 3, combined substitutions, relative to LuxSit-i): Monomeric

B3: MBIO-2466: MBIO-301 variant, H30D H36T H80T H84S H92S H98Q H101R; SEQ ID NO 2703 (protein)
chain: B1 chain with H30D, H36T, H80T, H84S, H92S, H98Q, H101R
- luciferase activity, higher than MBIO-301 ([2]; relative to MBIO-301): more than 5 ×

B4: MBIO-4039_No Lysine Residues: LuxSit-i variant that lacks lysine residues, SEQ ID NO: 2737 (protein)
chain: MSGMSEEQIRQNLRRFYEALDSGDAITAASLFDPGVTITLWDGTTFTSVEEFREWFESQFSTSRDALREISSLEVRGDTVEVTVRLSFTRNGQRHTVDLLQLFRFVGNRVVAVRVYVNPT
- activity of variant that lacks lysine residues ([2]; all lysine residues substituted): retains activity

B5: MBIO-3073: MBIO-2466 variant (Table 12), SEQ ID NO:2711 (protein)
chain: MSEEQIRQNLRRFYEALDSGDADTAASLFDPGVTITLWDGTTFTSVEEFREWFERLFSTSKDALREIKSLEVRGDTVEVTVQLSFTRNGQKHTVDLLQLFKFVGNRVVDVRVYTNPTG
- luciferase activity ([2]; among variants derived from MBIO-2466, Table 12): highest

B6: MBIO-4039: MBIO-2859 variant (Table 13), SEQ ID NO: 2730 (protein)
chain: B5 chain with D23I, R55S, L56Q, K68S, Q82R, D109A, T114V
- luciferase activity [2, 6]: highest
- stability [4, 6]: most stable

B7: MBIO-5344 (peptide)
peptide: HVVAVRVYVNPTG
- Baseline Signal (Normalized by expression) [5]: 23900
- Fold change upon Rap addition [5]: 2 fold

B8: MBIO-5343 (peptide)
peptide: RVVIVRVYVNPTG
- Baseline Signal (Normalized by expression) [5]: 20200
- Fold change upon Rap addition [5]: 1.8 fold
